Columns and labels:
[1] = target: c-Src SH2; assay: SH2 binding enrichment of the phosphorylated peptide, bacterial display (enrichment ratio); higher = better substrate or ligand; peptides without Tyr show the background
[2] = target: Grb2 SH2 (UniProt P62993); assay: as above
[3] = target: SHP2-C SH2; assay: as above
[4] = system: c-Abl (mouse); assay: phosphorylation enrichment, bacterial display (enrichment ratio); higher = better substrate or ligand; peptides without Tyr show the background
[5] = target: Jak2 (UniProt O60674); assay: as above
[6] = target: FGFR3 (UniProt P22607); assay: as above
[7] = target: EPHB2 (UniProt P29323); assay: as above
[8] = system: c-Src; assay: as above
[9] = target: EPHB1 (UniProt P54762); assay: as above
[10] = target: Fyn (UniProt P06241); assay: as above
[11] = target: FGFR1 (UniProt P11362); assay: as above
[12] = target: Hck (UniProt P08631); assay: as above
[13] = system: AncSZ; assay: as above
[14] = target: MERTK (UniProt Q12866); assay: as above
[15] = target: Fes (UniProt P07332); assay: as above
[16] = system: Fer (mouse); assay: as above
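Wherever SH2 binding enrichment of the phosphorylated peptide, bacterial display is given: peptide library displayed on the E. coli surface as eCPX fusions, selected cells deep-sequenced, score is each peptide's frequency after selection divided by its frequency in the input.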
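Wherever phosphorylation enrichment, bacterial display is given: 11-residue human phosphosite peptides and single-mutation variants displayed on the E. coli surface, counted by deep sequencing, each peptide's frequency after selection divided by its frequency in the unselected input library; frequency after pTyr selection over input frequency; kinase dosed for 20-30% of maximal phosphorylation in three min.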

FGFR3, sequence (P22607 whole entry, looked up): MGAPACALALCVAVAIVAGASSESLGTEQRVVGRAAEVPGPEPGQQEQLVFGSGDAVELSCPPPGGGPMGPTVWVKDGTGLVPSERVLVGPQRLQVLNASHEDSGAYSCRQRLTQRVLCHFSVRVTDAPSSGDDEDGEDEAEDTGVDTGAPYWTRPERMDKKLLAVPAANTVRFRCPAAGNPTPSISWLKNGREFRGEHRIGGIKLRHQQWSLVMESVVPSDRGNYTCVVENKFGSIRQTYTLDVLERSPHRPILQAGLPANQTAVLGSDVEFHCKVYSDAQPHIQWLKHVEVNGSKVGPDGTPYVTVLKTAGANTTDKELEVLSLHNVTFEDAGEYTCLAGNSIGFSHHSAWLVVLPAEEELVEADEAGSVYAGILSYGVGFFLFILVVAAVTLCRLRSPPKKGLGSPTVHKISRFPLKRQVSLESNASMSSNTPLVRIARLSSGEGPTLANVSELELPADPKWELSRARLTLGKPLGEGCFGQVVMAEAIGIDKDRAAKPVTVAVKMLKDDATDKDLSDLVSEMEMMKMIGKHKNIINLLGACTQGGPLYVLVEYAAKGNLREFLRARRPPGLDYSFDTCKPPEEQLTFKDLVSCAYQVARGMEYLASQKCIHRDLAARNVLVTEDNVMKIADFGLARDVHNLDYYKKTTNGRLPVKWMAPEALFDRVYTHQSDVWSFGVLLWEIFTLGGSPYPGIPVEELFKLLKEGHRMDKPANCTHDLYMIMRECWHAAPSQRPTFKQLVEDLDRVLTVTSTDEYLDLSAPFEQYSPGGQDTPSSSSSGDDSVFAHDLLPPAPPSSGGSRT
Jak2, sequence (O60674 whole entry, looked up): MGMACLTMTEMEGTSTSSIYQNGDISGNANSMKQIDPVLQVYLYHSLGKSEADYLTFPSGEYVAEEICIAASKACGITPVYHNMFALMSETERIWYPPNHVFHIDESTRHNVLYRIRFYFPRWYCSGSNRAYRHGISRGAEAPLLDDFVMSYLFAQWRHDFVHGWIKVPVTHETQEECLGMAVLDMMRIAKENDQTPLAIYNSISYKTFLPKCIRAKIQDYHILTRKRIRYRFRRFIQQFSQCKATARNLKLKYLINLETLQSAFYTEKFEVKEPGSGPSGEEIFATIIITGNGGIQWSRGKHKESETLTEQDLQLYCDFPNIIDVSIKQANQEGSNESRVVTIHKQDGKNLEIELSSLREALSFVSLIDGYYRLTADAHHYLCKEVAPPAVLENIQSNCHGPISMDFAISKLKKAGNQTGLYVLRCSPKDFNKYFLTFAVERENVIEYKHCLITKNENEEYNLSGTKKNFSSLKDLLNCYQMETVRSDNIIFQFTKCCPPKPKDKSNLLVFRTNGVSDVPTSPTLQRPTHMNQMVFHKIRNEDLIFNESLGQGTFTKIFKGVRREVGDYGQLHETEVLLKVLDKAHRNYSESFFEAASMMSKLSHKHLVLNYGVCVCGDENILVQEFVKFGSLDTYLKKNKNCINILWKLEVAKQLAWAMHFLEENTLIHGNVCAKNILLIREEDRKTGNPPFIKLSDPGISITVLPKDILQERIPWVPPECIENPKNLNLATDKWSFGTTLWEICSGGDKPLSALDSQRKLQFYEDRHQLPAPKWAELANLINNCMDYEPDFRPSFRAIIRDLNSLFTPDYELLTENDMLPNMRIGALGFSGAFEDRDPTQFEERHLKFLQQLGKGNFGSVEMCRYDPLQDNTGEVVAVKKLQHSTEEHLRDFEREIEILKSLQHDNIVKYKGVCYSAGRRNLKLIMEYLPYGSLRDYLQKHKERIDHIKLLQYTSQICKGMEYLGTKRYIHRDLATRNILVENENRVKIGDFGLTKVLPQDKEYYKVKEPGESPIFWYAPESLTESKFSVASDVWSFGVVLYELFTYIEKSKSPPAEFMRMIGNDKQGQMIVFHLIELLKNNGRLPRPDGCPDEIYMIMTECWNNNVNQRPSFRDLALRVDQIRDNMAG
FGFR1, sequence (P11362 whole entry, looked up): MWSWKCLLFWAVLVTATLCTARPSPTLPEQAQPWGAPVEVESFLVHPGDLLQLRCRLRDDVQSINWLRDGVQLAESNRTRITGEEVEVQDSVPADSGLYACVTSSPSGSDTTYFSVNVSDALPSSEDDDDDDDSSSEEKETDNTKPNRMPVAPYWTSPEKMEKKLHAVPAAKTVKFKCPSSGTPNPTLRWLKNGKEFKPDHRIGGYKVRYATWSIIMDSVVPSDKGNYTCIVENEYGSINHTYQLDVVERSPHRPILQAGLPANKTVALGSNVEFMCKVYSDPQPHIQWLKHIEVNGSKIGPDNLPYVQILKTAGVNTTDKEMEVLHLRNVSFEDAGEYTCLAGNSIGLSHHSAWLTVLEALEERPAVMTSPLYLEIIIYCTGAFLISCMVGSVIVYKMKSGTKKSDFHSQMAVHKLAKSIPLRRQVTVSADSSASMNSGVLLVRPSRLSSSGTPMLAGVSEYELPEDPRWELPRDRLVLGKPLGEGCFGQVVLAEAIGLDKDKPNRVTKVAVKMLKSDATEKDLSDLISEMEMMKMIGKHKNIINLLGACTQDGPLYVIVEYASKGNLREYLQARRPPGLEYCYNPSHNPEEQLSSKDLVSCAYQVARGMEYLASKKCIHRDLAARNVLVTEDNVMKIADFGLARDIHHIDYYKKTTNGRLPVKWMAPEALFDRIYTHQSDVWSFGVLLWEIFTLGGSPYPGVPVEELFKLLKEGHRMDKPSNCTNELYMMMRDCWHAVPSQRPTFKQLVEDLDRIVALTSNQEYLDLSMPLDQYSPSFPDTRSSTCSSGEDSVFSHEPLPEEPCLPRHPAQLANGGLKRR
Hck, sequence (P08631 whole entry, looked up): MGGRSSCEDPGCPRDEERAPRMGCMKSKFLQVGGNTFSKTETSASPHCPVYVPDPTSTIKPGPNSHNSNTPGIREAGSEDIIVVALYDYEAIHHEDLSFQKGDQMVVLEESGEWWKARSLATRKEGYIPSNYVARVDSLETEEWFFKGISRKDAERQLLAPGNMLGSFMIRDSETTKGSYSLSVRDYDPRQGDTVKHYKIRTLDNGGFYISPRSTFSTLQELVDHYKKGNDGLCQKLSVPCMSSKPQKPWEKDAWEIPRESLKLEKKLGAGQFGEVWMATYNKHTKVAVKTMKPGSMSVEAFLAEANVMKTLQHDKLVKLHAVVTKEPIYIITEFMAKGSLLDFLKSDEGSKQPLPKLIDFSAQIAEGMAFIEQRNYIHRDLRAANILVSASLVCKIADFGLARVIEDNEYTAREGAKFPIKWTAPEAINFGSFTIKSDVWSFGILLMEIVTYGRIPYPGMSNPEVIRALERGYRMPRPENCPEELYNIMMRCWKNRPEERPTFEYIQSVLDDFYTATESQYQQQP
MERTK, sequence (Q12866 whole entry, looked up): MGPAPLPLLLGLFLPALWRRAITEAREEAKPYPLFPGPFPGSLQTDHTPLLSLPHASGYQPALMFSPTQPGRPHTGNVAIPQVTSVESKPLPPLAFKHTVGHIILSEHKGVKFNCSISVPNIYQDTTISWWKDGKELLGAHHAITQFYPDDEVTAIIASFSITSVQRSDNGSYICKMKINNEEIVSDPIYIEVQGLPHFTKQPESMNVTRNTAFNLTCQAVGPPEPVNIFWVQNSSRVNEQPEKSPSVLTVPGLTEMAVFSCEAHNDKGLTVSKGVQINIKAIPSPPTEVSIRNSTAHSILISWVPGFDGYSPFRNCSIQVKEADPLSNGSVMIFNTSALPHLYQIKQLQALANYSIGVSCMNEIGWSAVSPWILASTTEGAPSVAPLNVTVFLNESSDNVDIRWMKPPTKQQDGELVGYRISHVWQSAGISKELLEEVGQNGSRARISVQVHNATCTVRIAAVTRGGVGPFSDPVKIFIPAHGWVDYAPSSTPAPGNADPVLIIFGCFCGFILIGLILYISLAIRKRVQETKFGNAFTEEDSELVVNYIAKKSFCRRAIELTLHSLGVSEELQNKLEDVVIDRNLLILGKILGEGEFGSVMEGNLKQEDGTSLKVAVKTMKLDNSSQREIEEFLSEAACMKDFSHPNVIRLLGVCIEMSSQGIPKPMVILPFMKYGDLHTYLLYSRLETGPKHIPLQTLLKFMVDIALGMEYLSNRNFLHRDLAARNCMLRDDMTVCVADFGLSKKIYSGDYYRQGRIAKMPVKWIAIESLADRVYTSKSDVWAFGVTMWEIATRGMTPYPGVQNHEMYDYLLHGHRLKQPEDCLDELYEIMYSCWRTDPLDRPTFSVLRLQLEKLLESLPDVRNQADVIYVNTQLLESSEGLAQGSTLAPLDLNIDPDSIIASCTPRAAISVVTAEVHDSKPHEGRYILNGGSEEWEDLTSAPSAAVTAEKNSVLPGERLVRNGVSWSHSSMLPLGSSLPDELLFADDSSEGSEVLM
Grb2 SH2, sequence (P62993 whole entry, looked up): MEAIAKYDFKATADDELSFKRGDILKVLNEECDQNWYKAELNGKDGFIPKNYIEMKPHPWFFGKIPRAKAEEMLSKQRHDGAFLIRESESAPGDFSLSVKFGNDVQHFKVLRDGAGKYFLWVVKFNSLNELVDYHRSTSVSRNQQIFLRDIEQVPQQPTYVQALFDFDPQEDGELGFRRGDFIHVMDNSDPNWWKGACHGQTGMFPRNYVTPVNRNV
Fyn, sequence (P06241 whole entry, looked up): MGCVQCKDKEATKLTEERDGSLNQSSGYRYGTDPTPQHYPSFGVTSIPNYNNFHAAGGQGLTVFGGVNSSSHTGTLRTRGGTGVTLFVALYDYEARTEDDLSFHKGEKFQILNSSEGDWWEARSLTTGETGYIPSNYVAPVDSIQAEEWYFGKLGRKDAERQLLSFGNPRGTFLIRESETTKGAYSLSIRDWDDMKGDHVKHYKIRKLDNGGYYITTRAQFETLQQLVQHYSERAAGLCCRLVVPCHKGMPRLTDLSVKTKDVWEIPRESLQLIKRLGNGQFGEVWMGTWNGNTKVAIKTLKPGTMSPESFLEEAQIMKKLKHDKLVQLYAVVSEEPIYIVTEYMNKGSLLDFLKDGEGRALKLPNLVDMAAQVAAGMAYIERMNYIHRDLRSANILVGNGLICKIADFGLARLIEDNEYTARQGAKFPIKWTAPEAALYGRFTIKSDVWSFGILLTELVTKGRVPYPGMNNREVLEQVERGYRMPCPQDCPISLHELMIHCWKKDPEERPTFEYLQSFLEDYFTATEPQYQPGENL

| Sequence | SH2 binding enrichment [1] | SH2 binding enrichment [2] | SH2 binding enrichment [3] | phosphorylation enrichment [4] | phosphorylation enrichment [5] | phosphorylation enrichment [6] | phosphorylation enrichment [7] | phosphorylation enrichment [8] | phosphorylation enrichment [9] | phosphorylation enrichment [10] | phosphorylation enrichment [11] | phosphorylation enrichment [12] | phosphorylation enrichment [13] | phosphorylation enrichment [14] | phosphorylation enrichment [15] | phosphorylation enrichment [16] |
| --- | --- | --- | --- | --- | --- | --- | --- | --- | --- | --- | --- | --- | --- | --- | --- | --- |
| RHPEVYHHLGI [NVL_Y290_V295I] | 0.932 | 1.09 | 1.11 | 0.731 | 0.834 | 0.999 | 0.599 | 0.621 | 0.837 | 0.908 | 1.14 | 1.53 | 0.694 | 0.71 | 0.835 | 0.641 |
| RIVEIYSRRLR [GCH1_Y175_Q180R] | 0.404 | 0.761 | 0.353 | 0.692 | 0.619 | 0.549 | 0.654 | 0.81 | 0.728 | 0.922 | 0.292 | 0.736 | 0.691 | 0.773 | 0.623 | 1.15 |
| RKPDIYGRLAS [MCM4_Y459_E460G] | 1.02 | 1.16 | 0.764 | 0.67 | 0.535 | 1.05 | 0.545 | 2.24 | 0.513 | 4.7 | 0.757 | 5.06 | 0.628 | 0.753 | 0.807 | 0.747 |
| RKTAKYLLKGE [CDH5_Y82_N79T] | 0.461 | 0.861 | 0.709 | 1.1 | 0.628 | 0.704 | 0.54 | 0.535 | 0.915 | 0.598 | 1.04 | 0.672 | 0.71 | 0.832 | 0.644 | 0.878 |
| RLASVYTKRCS [CPT2_Y508_P504L] | 0.611 | 0.868 | 0.864 | 0.643 | 0.739 | 0.695 | 0.501 | 0.557 | 0.706 | 0.528 | 0.4 | 0.578 | 0.917 | 0.316 | 0.889 | 0.414 |
| RLLVVYPWNQR [HBB_Y36_T39N] | 1.54 | 2.12 | 1.84 | 0.735 | 1.04 | 0.62 | 0.752 | 0.351 | 0.391 | 0.603 | 0.557 | 0.431 | 1.1 | 0.636 | 1.4 | 0.595 |
| RLQEDYDHSFF [ESD_Y258_G257D_YF] | 0.339 | 0.901 | 0.914 | 1.19 | 1.65 | 1.2 | 0.912 | 1.07 | 1.21 | 0.792 | 0.842 | 0.869 | 1.74 | 0.649 | 1.55 | 0.919 |
| RMETEYGPSVT [MXRA5_Y2717] | 0.584 | 1.07 | 0.622 | 0.92 | 0.985 | 0.718 | 0.929 | 0.787 | 0.779 | 0.823 | 0.91 | 0.752 | 0.937 | 0.54 | 1.01 | 0.408 |
| RMQLPYDSTWE [PDGFRB_Y589_P584R] | 0.91 | 0.445 | 0.747 | 0.913 | 1.17 | 0.963 | 0.704 | 0.996 | 0.76 | 0.851 | 0.779 | 0.764 | 1.23 | 0.447 | 1.33 | 0.434 |
| RNIQQHNSFVS [PRKAR1A_Y373_Y373H] | 0.557 | 0.806 | 0.694 | 0.438 | 0.461 | 0.448 | 0.343 | 0.367 | 0.604 | 0.443 | 0.42 | 0.378 | 0.601 | 0.329 | 0.451 | 0.379 |
| RPGSGYTNIMQ [PKLR_Y564_R569Q] | 2.99 | 2.13 | 1.76 | 0.549 | 0.463 | 0.517 | 0.484 | 0.597 | 0.61 | 0.469 | 0.763 | 0.548 | 0.775 | 0.524 | 0.834 | 0.466 |
| RQNNSYTCYTA [SLC20A2_Y386_R382Q] | 0.664 | 0.739 | 0.644 | 0.582 | 0.787 | 0.659 | 0.76 | 0.915 | 0.597 | 0.58 | 0.557 | 0.694 | 1.11 | 0.476 | 0.897 | 0.528 |
| RQQEVYLLFKQ [RARRES1_Y159_D158V_YF] | 0.853 | 1.34 | 1.05 | 1.64 | 1.37 | 1.19 | 0.589 | 0.788 | 0.915 | 0.892 | 0.789 | 0.66 | 1.57 | 0.478 | 1.48 | 0.576 |
| RRAKGYPINLF [ITGB2_Y125_D128N_YF] | 0.572 | 0.868 | 0.397 | 0.537 | 0.603 | 0.465 | 0.613 | 0.554 | 0.576 | 0.435 | 0.448 | 0.448 | 0.49 | 0.476 | 0.571 | 0.454 |
| RRIFSYRGHLW [VHL_Y112_H110Y_YF] | 0.498 | 1.07 | 0.495 | 1.1 | 0.587 | 0.619 | 0.541 | 0.905 | 0.47 | 0.763 | 0.731 | 0.712 | 0.834 | 0.6 | 0.897 | 0.536 |
| RRNVFYFSFLL [PTEN_Y177_Y174N_YF] | 0.893 | 1.34 | 0.691 | 2.83 | 1.69 | 0.709 | 1.03 | 1.29 | 0.998 | 0.984 | 0.743 | 0.923 | 1.81 | 0.937 | 1.62 | 0.852 |
| RSRSPYSSRHS [CDK13_Y415] | 0.433 | 0.793 | 0.543 | 0.637 | 0.472 | 0.489 | 0.614 | 0.446 | 0.422 | 0.557 | 0.701 | 0.548 | 0.596 | 0.625 | 0.634 | 0.439 |

| Sequence | SH2 binding enrichment [1] | SH2 binding enrichment [2] | SH2 binding enrichment [3] | phosphorylation enrichment [4] | phosphorylation enrichment [5] | phosphorylation enrichment [6] | phosphorylation enrichment [7] | phosphorylation enrichment [8] | phosphorylation enrichment [9] | phosphorylation enrichment [10] | phosphorylation enrichment [11] | phosphorylation enrichment [12] | phosphorylation enrichment [13] | phosphorylation enrichment [14] | phosphorylation enrichment [15] | phosphorylation enrichment [16] |
| --- | --- | --- | --- | --- | --- | --- | --- | --- | --- | --- | --- | --- | --- | --- | --- | --- |
| RSSGGYEPRGR [FUS_Y239] | 0.488 | 0.674 | 0.521 | 0.384 | 0.683 | 0.403 | 0.452 | 0.358 | 0.323 | 0.412 | 0.555 | 0.379 | 0.652 | 0.425 | 0.569 | 0.418 |
| RSSNTYTLMDV [ALCAM_Y298_T301M] | 6.21 | 0.78 | 0.7 | 0.614 | 0.309 | 1.17 | 0.868 | 1.58 | 0.633 | 1.55 | 1.26 | 0.676 | 1.01 | 4.15 | 0.793 | 1.42 |
| RTLIRYANLGN [BEST1_Y131] | 0.802 | 3.12 | 1.12 | 1.04 | 0.793 | 0.654 | 0.666 | 0.685 | 0.918 | 0.973 | 0.621 | 0.481 | 1.03 | 0.706 | 1.14 | 0.737 |
| RVEDACILTCN [CCT6A_Y229_Y229C] | 0.657 | 0.85 | 0.738 | 0.86 | 1.18 | 0.968 | 0.688 | 0.727 | 0.622 | 0.551 | 0.708 | 0.751 | 0.994 | 0.683 | 1.12 | 0.571 |
| RVILRYVNPGN [LAMA3_Y791_T796N] | 0.944 | 1.17 | 0.873 | 1.61 | 1.79 | 1.12 | 0.711 | 0.75 | 0.836 | 0.617 | 0.614 | 0.775 | 1.47 | 0.709 | 2.02 | 0.609 |
| RVLKLYGCSPS [ASTL_Y279] | 0.566 | 0.895 | 0.93 | 0.719 | 0.983 | 0.608 | 0.761 | 0.516 | 0.634 | 0.728 | 0.367 | 0.564 | 1.03 | 0.461 | 0.943 | 0.981 |
| SARVRYLMAEK [LDHB_Y173_F171V] | 0.862 | 0.925 | 0.755 | 0.472 | 0.39 | 0.532 | 0.521 | 0.38 | 0.46 | 0.43 | 0.482 | 0.423 | 0.579 | 0.417 | 0.756 | 0.439 |
| SDFFAYSPVQE [H6PD_Y449_R453Q_YF] | 1.83 | 0.704 | 0.639 | 0.922 | 1.36 | 0.807 | 0.686 | 0.611 | 0.783 | 0.489 | 0.577 | 0.647 | 1.44 | 0.645 | 1.32 | 1.13 |
| SDMGQYQCLVF [AXL_Y115_T112M] | 0.437 | 0.726 | 0.916 | 1.57 | 0.933 | 1.89 | 0.991 | 1.97 | 0.923 | 2.35 | 2.05 | 3.14 | 1.3 | 1.84 | 1.22 | 3.38 |
| SDVLSYGVTMW [ZAP70_Y525_W523L] | 0.474 | 0.837 | 0.699 | 0.645 | 1.04 | 0.642 | 0.604 | 0.531 | 0.626 | 0.449 | 0.493 | 0.475 | 0.922 | 0.342 | 1.03 | 0.523 |
| SDYYAYSPVRE [H6PD_Y449] | 1.13 | 1.06 | 1.48 | 12.9 | 11.2 | 14.8 | 23.7 | 7.18 | 17.5 | 9.64 | 16.3 | 8.79 | 6.22 | 10.7 | 0.832 | 12.9 |
| SENPKYPEVGD [TMEM43_Y233] | 0.482 | 1.27 | 0.594 | 0.822 | 0.891 | 0.734 | 0.561 | 0.584 | 0.459 | 0.616 | 0.6 | 0.536 | 1.01 | 0.522 | 1.2 | 0.424 |
| SFLFHYADDSF [RAB3C_Y50_R49H] | 1.55 | 1.09 | 1.08 | 0.718 | 0.958 | 0.671 | 0.549 | 0.466 | 0.498 | 0.476 | 0.438 | 0.399 | 0.905 | 0.412 | 1.12 | 0.465 |
| SFLSFYTSHVQ [NEFL_Y443_P440L_YF] | 1.25 | 1.41 | 1.23 | 0.693 | 1.1 | 0.682 | 0.697 | 0.462 | 0.758 | 0.421 | 0.531 | 0.428 | 1.21 | 0.533 | 1.3 | 0.503 |
| SGAWSYNTSTE [SELE_Y24] | 0.536 | 0.802 | 0.886 | 0.55 | 0.881 | 0.621 | 0.502 | 0.378 | 0.458 | 0.499 | 0.52 | 0.379 | 0.788 | 0.447 | 0.748 | 0.382 |
| SGIFQYIIAKF [FOXL2_Y83_YF] | 0.763 | 1.35 | 1.27 | 0.84 | 1.07 | 0.704 | 0.564 | 0.561 | 0.602 | 0.496 | 0.639 | 0.546 | 1.14 | 0.518 | 1.13 | 0.503 |
